In paper PMC11574045, “A cofactor-induced repressive type of transcription factor condensation can be induced by synthetic peptides to suppress tumorigenesis” (The EMBO Journal, 2024):

B1: MADH1 (protein, UniProt Q15797 1-465, looked up)
Mothers against …: MNVTSLFSFTSPAVKRLLGWKQGDEEEKWAEKAVDALVKKLKKKKGAMEELEKALSCPGQPSNCVTIPRSLDGRLQVSHRKGLPHVIYCRVWRWPDLQSHHELKPLECCEFPFGSKQKEVCINPYHYKRVESPVLPPVLVPRHSEYNPQHSLLAQFRNLGQNEPHMPLNATFPDSFQQPNSHPFPHSPNSSYPNSPGSSSSTYPHSPTSSDPGSPFQMPADTPPPAYLPPEDPMTQDGSQPMDTNMMAPPLPSEINRGDVQAVAYEEPKHWCSIVYYELNNRVGEAFHASSTSVLVDGFTDPSNNKNRFCLGLLSNVNRNSTIENTRRHIGKGVHLYYVGGEVYAECLSDSSIFVQSRNCNYHHGFHPTTVCKIPSGCSLKIFNNQEFAQLLAQSVNHGFETVYELTKMCTIRMSFVKGWGAEYHRQDVTSTPCWIEIHLHGPLQWLDKVLTQMGSPHNPISSVS
B2: LIN28B (protein, UniProt Q6ZN17 1-250, looked up)
Protein lin-28 homolog B: MAEGGASKGGGEEPGKLPEPAEEESQVLRGTGHCKWFNVRMGFGFISMINREGSPLDIPVDVFVHQSKLFMEGFRSLKEGEPVEFTFKKSSKGLESIRVTGPGGSPCLGSERRPKGKTLQKRKPKGDRCYNCGGLDHHAKECSLPPQPKKCHYCQSIMHMVANCPHKNVAQPPASSQGRQEAESQPCTSTLPREVGGGHGCTSPPFPQEARAEISERSGRSPQEASSTKSSIAPEEQSKKGPSVQKRKKT
B3: MAD3 (protein, UniProt Q9BW11 1-206, looked up)
Max dimerization protein 3: MEPLASNIQVLLQAAEFLERREREAEHGYASLCPHRSPGPIHRRKKRPPQAPGAQDSGRSVHNELEKRRRAQLKRCLERLKQQMPLGADCARYTTLSLLRRARMHIQKLEDQEQRARQLKERLRSKQQSLQRQLEQLRGLAGAAERERLRADSLDSSGLSSERSDSDQEELEVDVESLVFGGEAELLRGFVAGQEHSYSHGGGAWL
B4: MADH4 (protein, UniProt Q13485 1-552, looked up)
Mothers against …: MDNMSITNTPTSNDACLSIVHSLMCHRQGGESETFAKRAIESLVKKLKEKKDELDSLITAITTNGAHPSKCVTIQRTLDGRLQVAGRKGFPHVIYARLWRWPDLHKNELKHVKYCQYAFDLKCDSVCVNPYHYERVVSPGIDLSGLTLQSNAPSSMMVKDEYVHDFEGQPSLSTEGHSIQTIQHPPSNRASTETYSTPALLAPSESNATSTANFPNIPVASTSQPASILGGSHSEGLLQIASGPQPGQQQNGFTGQPATYHHNSTTTWTGSRTAPYTPNLPHHQNGHLQHHPPMPPHPGHYWPVHNELAFQPPISNHPAPEYWCSIAYFEMDVQVGETFKVPSSCPIVTVDGYVDPSGGDRFCLGQLSNVHRTEAIERARLHIGKGVQLECKGEGDVWVRCLSDHAVFVQSYYLDREAGRAPGDAVHKIYPSAYIKVFDLRQCHRQMQQQAATAQAAAAAQAAAVAGNIPGPGSVGGIAPAISLSAAAGIGVDDLRRLCILRMSFVKGWGPDYPRQSIKETPCWIEIHLHRALQLLDEVLHTMPIADPQPLD
B5: LITAF (protein, UniProt Q99732 1-161, looked up)
Lipopolysaccharide-induced …: MSVPGPYQAATGPSSAPSAPPSYEETVAVNSYYPTPPAPMPGPTTGLVTGPDGKGMNPPSYYTQPAPIPNNNPITVQTVYVQHPITFLDRPIQMCCPSCNKMIVSQLSYNAGALTWLSCGSLCLLGCIAGCCFIPFCVDALQDVDHYCPNCRALLGTYKRL
B6: LHX2 (protein, UniProt P50458 1-406, looked up)
LIM/homeobox protein Lhx2: MLFHSLSGPEVHGVIDEMDRRAKSEAPAISSAIDRGDTETTMPSISSDRAALCAGCGGKISDRYYLLAVDKQWHMRCLKCCECKLNLESELTCFSKDGSIYCKEDYYRRFSVQRCARCHLGISASEMVMRARDLVYHLNCFTCTTCNKMLTTGDHFGMKDSLVYCRLHFEALLQGEYPAHFNHADVAAAAAAAAAAKSAGLGAAGANPLGLPYYNGVGTVQKGRPRKRKSPGPGADLAAYNAALSCNENDAEHLDRDQPYPSSQKTKRMRTSFKHHQLRTMKSYFAINHNPDAKDLKQLAQKTGLTKRVLQVWFQNARAKFRRNLLRQENTGVDKSTDAALQTGTPSGPASELSNASLSPSSTPTTLTDLTSPTLPTVTSVLTSVPGNLEGHEPHSPSQTTLTNLF
B7: LMO1 (protein, UniProt P25800 1-156, looked up)
Rhombotin-1: MMVLDKEDGVPMLSVQPKGKQKGCAGCNRKIKDRYLLKALDKYWHEDCLKCACCDCRLGEVGSTLYTKANLILCRRDYLRLFGTTGNCAACSKLIPAFEMVMRARDNVYHLDCFACQLCNQRFCVGDKFFLKNNMILCQMDYEEGQLNGTFESQVQ
B8: LEF1 (protein, UniProt Q9UJU2 1-399, looked up)
Lymphoid enhancer-binding …: MPQLSGGGGGGGGDPELCATDEMIPFKDEGDPQKEKIFAEISHPEEEGDLADIKSSLVNESEIIPASNGHEVARQAQTSQEPYHDKAREHPDDGKHPDGGLYNKGPSYSSYSGYIMMPNMNNDPYMSNGSLSPPIPRTSNKVPVVQPSHAVHPLTPLITYSDEHFSPGSHPSHIPSDVNSKQGMSRHPPAPDIPTFYPLSPGGVGQITPPLGWQGQPVYPITGGFRQPYPSSLSVDTSMSRFSHHMIPGPPGPHTTGIPHPAIVTPQVKQEHPHTDSDLMHVKPQHEQRKEQEPKRPHIKKPLNAFMLYMKEMRANVVAECTLKESAAINQILGRRWHALSREEQAKYYELARKERQLHMQLYPGWSARDNYGKKKKRKREKLQESASGTGPRMTAAYI
B9: LMX1B (protein, UniProt O60663 1-402, looked up)
LIM homeobox transcription …: MDIATGPESLERCFPRGQTDCAKMLDGIKMEEHALRPGPATLGVLLGSDCPHPAVCEGCQRPISDRFLMRVNESSWHEECLQCAACQQALTTSCYFRDRKLYCKQDYQQLFAAKCSGCMEKIAPTEFVMRALECVYHLGCFCCCVCERQLRKGDEFVLKEGQLLCKGDYEKEKDLLSSVSPDESDSVKSEDEDGDMKPAKGQGSQSKGSGDDGKDPRRPKRPRTILTTQQRRAFKASFEVSSKPCRKVRETLAAETGLSVRVVQVWFQNQRAKMKKLARRHQQQQEQQNSQRLGQEVLSSRMEGMMASYTPLAPPQQQIVAMEQSPYGSSDPFQQGLTPPQMPGDHMNPYGNDSIFHDIDSDTSLTSLSDCFLGSSDVGSLQARVGNPIDRLYSMQSSYFAS
B10: ASCL2 (protein, UniProt Q99929 1-193, looked up)
Achaete-scute homolog 2: MDGGTLPRSAPPAPPVPVGCAARRRPASPELLRCSRRRRPATAETGGGAAAVARRNERERNRVKLVNLGFQALRQHVPHGGASKKLSKVETLRSAVEYIRALQRLLAEHDAVRNALAGGLRPQAVRPSAPRGPPGTTPVAASPSRASSSPGRGGSSEPGSPRSAYSSDDSGCEGALSPAERELLDFSSWLGGY
B11: LHX3 (protein, UniProt Q9UBR4 1-397, looked up)
LIM/homeobox protein Lhx3: MLLETGLERDRARPGAAAVCTLGGTREIPLCAGCDQHILDRFILKALDRHWHSKCLKCSDCHTPLAERCFSRGESVYCKDDFFKRFGTKCAACQLGIPPTQVVRRAQDFVYHLHCFACVVCKRQLATGDEFYLMEDSRLVCKADYETAKQREAEATAKRPRTTITAKQLETLKSAYNTSPKPARHVREQLSSETGLDMRVVQVWFQNRRAKEKRLKKDAGRQRWGQYFRNMKRSRGGSKSDKDSVQEGQDSDAEVSFPDEPSLAEMGPANGLYGSLGEPTQALGRPSGALGNFSLEHGGLAGPEQYRELRPGSPYGVPPSPAAPQSLPGPQPLLSSLVYPDTSLGLVPSGAPGGPPPMRVLAGNGPSSDLSTGSSGGYPDFPASPASWLDEVDHAQF
B12: LMCD1 (protein, UniProt Q9NZU5 1-365, looked up)
LIM and cysteine-rich domains …: MAKVAKDLNPGVKKMSLGQLQSARGVACLGCKGTCSGFEPHSWRKICKSCKCSQEDHCLTSDLEDDRKIGRLLMDSKYSTLTARVKGGDGIRIYKRNRMIMTNPIATGKDPTFDTITYEWAPPGVTQKLGLQYMELIPKEKQPVTGTEGAFYRRRQLMHQLPIYDQDPSRCRGLLENELKLMEEFVKQYKSEALGVGEVALPGQGGLPKEEGKQQEKPEGAETTAATTNGSLSDPSKEVEYVCELCKGAAPPDSPVVYSDRAGYNKQWHPTCFVCAKCSEPLVDLIYFWKDGAPWCGRHYCESLRPRCSGCDEIIFAEDYQRVEDLAWHRKHFVCEGCEQLLSGRAYIVTKGQLLCPTCSKSKRS
B13: LIN28 (protein, UniProt Q9H9Z2 2-209, looked up)
Protein lin-28 homolog A: GSVSNQQFAGGCAKAAEEAPEEAPEDAARAADEPQLLHGAGICKWFNVRMGFGFLSMTARAGVALDPPVDVFVHQSKLHMEGFRSLKEGEAVEFTFKKSAKGLESIRVTGPGGVFCIGSERRPKGKSMQKRRSKGDRCYNCGGLDHHAKECKLPPQPKKCHFCQSISHMVASCPLKAQQGPSAQGKPTYFREEEEEIHSPTLLPEAQN
B14: MAEL (protein, UniProt Q96JY0 1-434, looked up)
Protein maelstrom homolog: MPNRKASRNAYYFFVQEKIPELRRRGLPVARVADAIPYCSSDWALLREEEKEKYAEMAREWRAAQGKDPGPSEKQKPVFTPLRRPGMLVPKQNVSPPDMSALSLKGDQALLGGIFYFLNIFSHGELPPHCEQRFLPCEIGCVKYSLQEGIMADFHSFINPGEIPRGFRFHCQAASDSSHKIPISNFERGHNQATVLQNLYRFIHPNPGNWPPIYCKSDDRTRVNWCLKHMAKASEIRQDLQLLTVEDLVVGIYQQKFLKEPSKTWIRSLLDVAMWDYSSNTRCKWHEENDILFCALAVCKKIAYCISNSLATLFGIQLTEAHVPLQDYEASNSVTPKMVVLDAGRYQKLRVGSSGFSHFNSSNEEQRSNTPIGDYPSRAKISGQNSSVRGRGITRLLESISNSSSNIHKFSNCDTSLSPYMSQKDGYKSFSSLS
B15: MAD (protein, UniProt Q05195 1-221, looked up)
Max dimerization protein 1: MAAAVRMNIQMLLEAADYLERREREAEHGYASMLPYNNKDRDALKRRNKSKKNNSSSRSTHNEMEKNRRAHLRLCLEKLKGLVPLGPESSRHTTLSLLTKAKLHIKKLEDCDRKAVHQIDQLQREQRHLKRQLEKLGIERIRMDSIGSTVSSERSDSDREEIDVDVESTDYLTGDLDWSSSSVSDSDERGSMQSLGSDEGYSSTSIKRIKLQDSHKACLGL

Tested on: HEK293FT cells transfected with TF library
Assay: Screening of TF condensates based on fluorescent puncta
Format: cell-based
Settings: Figure 1B numerical data; TF library screen, one value per transcriptional factor
In short: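 TF plasmids (final 1.6 μg/ml) reverse-transfected with PEI (4.8 μg/ml) into HEK293FT cells; after 60 h, cells cultured ±glucose for 12 h, fixed in 4% PFA and immunostained for Flag or GAL4 tags with Alexa 488 secondaries. Puncta scored by automated imaging of 50 random fields per well.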

Molecule	Z score of condensed fraction
B1	-0.2284
B2	-0.9223
B3	-1.116
B4	-0.6861
B5	0.004705
B6	0.8007
B7	0.976
B8	0.2503
B9	0.1118
B10	0.864
B11	-0.2379
B12	2.397
B13	-0.1683
B14	-0.816
B15	0.4682
